The data set deals with Factor X (FX), P00742.
Chain of Factor X (FX), P00742 (P00742 whole entry, looked up): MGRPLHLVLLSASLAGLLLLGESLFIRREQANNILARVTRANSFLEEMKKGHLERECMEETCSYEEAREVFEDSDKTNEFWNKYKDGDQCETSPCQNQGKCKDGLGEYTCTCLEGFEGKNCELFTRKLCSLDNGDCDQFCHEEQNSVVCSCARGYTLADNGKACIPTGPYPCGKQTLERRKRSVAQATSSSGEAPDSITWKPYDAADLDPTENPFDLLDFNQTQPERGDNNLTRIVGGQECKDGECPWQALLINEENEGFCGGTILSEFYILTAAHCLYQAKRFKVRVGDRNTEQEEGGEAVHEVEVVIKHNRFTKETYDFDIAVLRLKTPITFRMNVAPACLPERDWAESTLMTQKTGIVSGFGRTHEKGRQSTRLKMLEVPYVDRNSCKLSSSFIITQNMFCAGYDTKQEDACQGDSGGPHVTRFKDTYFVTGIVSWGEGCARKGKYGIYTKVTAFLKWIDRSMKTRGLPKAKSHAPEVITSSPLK

B1: FIXa-Y155F/K247N/N249S/N260S (protein)
chain 1: not shown
chain 2: not shown
With B1, the “% of WT kcat/KM (against Catalyst Biosciences WT FIXa), FX activation in the Xase complex” value (“% of WT kcat/KM … in the Xase complex” below) stood at 43%; the Michaelis constant (KM) – broadly, the substrate concentration at which the rate is half of its maximum – stood at 0.0965 µM; the KM (nM) for activation of FX by FIXa in the Xase complex (FVIIIa, PC/PS vesicles, Ca2+), fluorogenic Spectrafluor FXa assay is 96.5 nM; the kcat/KM for FX activation by FIXa in the Xase complex (FVIIIa, PC/PS vesicles, Ca2+), indirect fluorogenic Spectrafluor FXa assay is 1.9e+07 M⁻¹ s⁻¹.

B2: FIXa-Y155F/R338E/R403E/E410N (protein)
chain 1: not shown
chain 2: not shown
Consider B2, for which the KM is 0.0336 µM.

B3: FIXa-Y155F/R318Y/T343R/E410N (protein)
chain 1: not shown
chain 2: not shown
Turning to B3, the KM (nM), FX activation by FIXa in the Xase complex (FVIIIa, PC/PS vesicles, Ca2+), indirect fluorogenic assay with Spectrafluor FXa came out at 40.3 nM.

B4: FIXa-K247N/N249S/R318Y/R403E/E410N (protein)
chain 1: not shown
chain 2: not shown
On to B4, for which the KM stood at 0.111 µM.

B5: FIXa-A103N/N105S/K247N/N249S/R318Y/R338E/R403E/E410N (protein)
chain 1: not shown
chain 2: not shown
As to B5, the “% of WT kcat/KM (against Catalyst Biosciences WT FIXa)” value was determined as 324%; the KM was 0.028 µM; the kcat/KM for activation of FX by FIXa in the Xase complex (FVIIIa, PC/PS vesicles, Ca2+), fluorogenic Spectrafluor FXa read-out stood at 1.5e+08 M⁻¹ s⁻¹.

B6: FIXa-Y155F/K247N/N249S/R318Y/R403E/E410N (protein)
chain 1: not shown
chain 2: not shown
Take B6: the KM was found to be 0.125 µM.

B7: FIXa-D104N/K106S/K247N/N249S/N260S (protein)
chain 1: not shown
chain 2: not shown
As for B7, the “% of WT kcat/KM … in the Xase complex” value is 22%; the KM came to 0.0612 µM; the KM (nM) for activation of FX by FIXa in the Xase complex (FVIIIa, PC/PS vesicles, Ca2+), fluorogenic Spectrafluor FXa assay worked out at 61.2 nM; the kcat/KM for FX activation by FIXa in the Xase complex (FVIIIa, PC/PS vesicles, Ca2+), indirect fluorogenic Spectrafluor FXa assay worked out at 9.8e+06 M⁻¹ s⁻¹.

B8: FIXa-R318Y/R338E/R403E/T412A (protein)
chain 1: not shown
chain 2: not shown
As to B8, the KM turned out to be 0.0675 µM.

B9: FIXa-Y155F/K228N/K247N/N249S (protein)
chain 1: not shown
chain 2: not shown
Regarding B9, the “% of WT kcat/KM (against Catalyst Biosciences WT FIXa)” value came out at 115%; the KM was determined as 0.0792 µM; the kcat/KM for activation of FX by FIXa in the Xase complex (FVIIIa, PC/PS vesicles, Ca2+), fluorogenic Spectrafluor FXa read-out was 5.3e+07 M⁻¹ s⁻¹.

B10: FIXa-R318Y/R338E/T412A (protein)
chain 1: not shown
chain 2: not shown
Consider B10, for which the “% of WT kcat/KM … in the Xase complex” value is recorded as 661%; the KM is 0.0235 µM; the kcat/KM for FX activation by FIXa in the Xase complex (FVIIIa, PC/PS vesicles, Ca2+), indirect fluorogenic Spectrafluor FXa assay came out at 3e+08 M⁻¹ s⁻¹.

B11: FIXa-D104N/K106S/Y155F/K247N/N249S/N260S (protein)
chain 1: not shown
chain 2: not shown
Take B11: the “% of WT kcat/KM … in the Xase complex” value is 18%; the KM is 0.0685 µM; the KM (nM) for activation of FX by FIXa in the Xase complex (FVIIIa, PC/PS vesicles, Ca2+), fluorogenic Spectrafluor FXa assay was found to be 68.5 nM; the kcat/KM for FX activation by FIXa in the Xase complex (FVIIIa, PC/PS vesicles, Ca2+), indirect fluorogenic Spectrafluor FXa assay was 8.2e+06 M⁻¹ s⁻¹.

B12: FIXa-N260S/R318Y/R338E/R403E/E410N (protein)
chain 1: not shown
chain 2: not shown
For the protein B12, the “% of WT kcat/KM … in the Xase complex” value was determined as 117%; the KM is 0.0724 µM; the kcat/KM for FX activation by FIXa in the Xase complex (FVIIIa, PC/PS vesicles, Ca2+), indirect fluorogenic Spectrafluor FXa assay worked out at 5.3e+07 M⁻¹ s⁻¹.

Source of the values: US11491212.
